The labels stand for the following.
B1: TIP41-like protein (Homo sapiens), O75663 (parent)
chain: MMIHGFQSSHRDFCFGPWKLTASKTHIMKSADVEKLADELHMPSLPEMMFGDNVLRIQHGSGFGIEFNATDALRCVNNYQGMLKVACAEEWQESRTEGEHSKEVIKPYDWTYTTDYKGTLLGESLKLKVVPTTDHIDTEKLKAREQIKFFEEVLLFEDELHDHGVSSLSVKIRVMPSSFFLLLRFFLRIDGVLIRMNDTRLYHEADKTYMLREYTSRESKISSLMHVPPSLFTEPNEISQYLPIKEAVCEKLIFPERIDPNPADSQKSTQVE

Results on one variant are retold here after IntAct's records for PubMed 23892082.

Variants of B1 are the subject of the test. The note with it: with pp2aa_rat Ppp2ca.
In the case of D71L, the “effect of a mutation on the interaction” value was “disrupting interaction”.
